Measurements as given in the RNAGym collection of RNA variant scans (doi:10.1073/pnas.2313332121).
Variants at the floor of the assay were thinned out.

B1: TPR 5TU (parent)
chain: GGAUCUUCUCGAUCUAACAAAAAAGACAAAUCUGCCACAAAGCUUGAGAGCAUCUUCGGAUGCAGAGGCGGCAGCCUUCGGUGGCGCGAUAGCGCCAACGUUCUCAACUAUGACACGCAAAACGCGUGCUCCGUUGAAUGGAGUUUAUCAUG

Variants of: B1
Test: polymerase ribozyme fitness, log enrichment relative to wild type (log ratio); higher = more active; in vitro selection for triplet polymerase activity
Summary of the method: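 For each subunit of a heterodimeric triplet polymerase ribozyme, a mutant library was built by PCR and transcribed, then taken through a single in vitro selection round in triplicate. Selection involved annealing to a biotinylated primer, the partner subunit and triplets, incubation frozen at −7 °C, gel excision of extended constructs, capture on streptavidin beads and RT-PCR. Genotypes were retained after Illumina sequencing of inputs and outputs only with ≥10 input reads and ≥1 read in each output. Fitness is defined as the logarithm of a genotype's enrichment relative to wild-type enrichment, using inverse-variance-weighted averages across replicates, with the logarithm taken to base 2.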

GGAUCUUCUGUAUCUAACAAAAAAGACAAAUCUGCCACAAAGCUUGAGAGCAUCUUCGGAUGCAGAGGCGGCAGCCUUGGGUGGCGCGAUAUCGCCAACGUUCUCAACUGUGACACGCAAAAGGCGUGCGCCGUUGAGUGGAGUUAAUCAUG and GGAUCUUCUGGAUCUAACAAAAAAGACAAAUCUGCCACAAAGCUUGAGAGCAACUUCGGAUGCAGAGGCGGCAGCCUUCGGUGGCGCGAUAGCGCCAACGUUCUCAACUAUGACACGCAAAACGCGUGCUCCGUUGAAUGGAGUUUAUCCUG cannot be ordered by “polymerase ribozyme fitness (log ratio)” value: ≤ -4.2 for the first, ≤ -4.2 for the second.

GGAUCUUCUGGAUCUAACAAAAAAGACAAAUCUGCCACAAAGCUUGAGAGCAUCUUCGGAUGCAGAGGCGGCAGCCUUGGGUGGCGCGAUAGCGCCAACGUUCUCAACUAUGACACGCAAAACGCGUGCUCCGUUGAAUGGAGUUUAUCAUG and GGAUCUUCUGGAUCUAACAAAAAAGACAAAUCUGCCACAAAGCUUGAGAGCAUCUUCGGAUGCAGAGGCGGCAGCCUUCGGUGGCGCGAUAGAGCCUACGUUCUCAACUAUGACAUGCAAAACGCGUGCUCCGUUGAAUGGAGUUUAUCAUG cannot be ordered by “polymerase ribozyme fitness (log ratio)” value: ≤ -4.2 for the first, ≤ -4.2 for the second.

First: GGAUCUUCUUGAUCUAGCAAAACCGGCAAAGCUGCCACUAAGCAUGAGAGCAUGUUGGGAUGCAGAGGCGGCAGCCUUAGGUGGCGCGAUAGCGCUAACGUUCUCAACUAUGACACGCAAAACACGUGCUCCGUUGAAUGGAGUUUAUCAUG
Second: GGAUCUUCUGGAUCUAACAAAAAAGACAAAUCUGCCACAAAGCUUGAGAGCAACUUCGGAUGCAGAGGCGGCAGCCUUCGGUGGCGCGAUAGCGCCAACGUUCUCAACUAUGACACGCAAAACGCGUGCUCCGUUGAAUGGAGUUUAUCAUG
The “polymerase ribozyme fitness (log ratio)” value of the first is lower: ≤ -4.2 for the first, -3.48 for the second.

Going from GGAUCUUCUGGAUCUAACAAAAAAGACAAAUCUGCCACAAAGCUUGAGAGCAUCUUCGGAUGCAGAGGCGGCAGCCUUCGGUGGCGUGAUAGCGCCAACGUUCUCAACUAUGACACGCAAAACGCGUGCUCCGUUGAAUGGAGUUUAUCAUG to GGAUCUUCUUGAUCUAACAUAAAAGACAAAUCUGCCACAAAGCUUGAGAGCAUCUUCGGAUGCAGAGGCGGCAGCCUUCGGUUGCGCGAUAGCGCCAACGUUCUCAACUAUGACACGCAAAACGCGUGCUCCGUUGAAUGGAGUUUAUCAUG, the “polymerase ribozyme fitness (log ratio)” value falls from -3.38 to -3.85.

GGAUCUUCUGGAUCUAACAAAAAAGACAAAUCUGCCACAAAGCUUGAGAGCAUCUUCGGAUGCAGAGGCGGCAGCCUUCGGUGGCGCGAUAACGCCAACGUUCUCAACUAGGACACGCAAAACGCGUGCUCCGUUGAAUGGAGUUUAUCCUG and GGAUCUUCUGGAUCUAACAAAAAAGACAAAUCUGCCACAAAGCUUGAGAGCAUCUUCGGAUGCAGAGGCGGCAGCCUUCGGCGGCGCGAUAGCUCCAACGUCCUCACCUAUGACACGCAAAACGCGUGCUCCGUUGAUUGGAGUUUAUCAUG cannot be ordered by “polymerase ribozyme fitness (log ratio)” value: ≤ -4.2 for the first, ≤ -4.2 for the second.

First: GGAUCUUCUUGUUCUAACAAAAAAGACAAAUCUGCCACAAAGCUUGAGAGCAUCUUCGGAUGCAGAGGCGGCAGCCUUCGGUGGCGCGAUAGCGCCAACGUUCUCAACUAUGACACGCAACACGCGUGCUCCGUUGAAUGGAGUUUAUCAUG
Second: GGAUCUUCUUGAUCUACCAAAAAAGACAAAUCUGCCACAAAGCUUGAGAGCAUCUUCGGAUGCAGAGGCGGCAGCCUUCGGUGGCGCGAUAGCGCCAACGUUCUCAACUAUGACACGCAAAACGCGUGCUCCGUUGAAUGGAGUUUAUCAUG
The “polymerase ribozyme fitness (log ratio)” value of the first is lower: -4.08 for the first, -2.07 for the second.

First: GGAUCUUCUUGAUCUAUCAAAAAAGACAAAUCUGCCACAAAGCUUGAGAGCAUCUUCGGAUGCAGAGGCGGCAGCCUUCGGUGGCGCGAUAGCGCCAACGUUCUCAACUAUGACACGCAAAACGCGUGCUCCGUUGAAUGGAGUUUAUCAUG
Second: GGAUCUUCUGGAGCUAACAAAAAAGACAAAUCUGCCACAAAGCUUGAGAGCAUCUUUGGAUGCAGAGGCGGCAGCCUUCGGUGGUGCGAUAGCGCCAACGUUCUCAACUAUGACACGCAAAACGCGUGCUCCGUUGAAUGGAGUUUAUCAUC
The “polymerase ribozyme fitness (log ratio)” value of the first is higher: -3.22 for the first, ≤ -4.2 for the second.

Going from GGAUCUUCUGUAUCUAACAAAAAAGACCAAUCUGCCGCAAAGCUUUAGAGCAUCUUCGGAUGCAGAGGCGGCAGCCUUCGGUGGCGCUAUAGCGCUAACGUGCUUAACUAUGACACGCAAAACGCGUGCUCCGUUGAAUGGAGUUUAUCAUG to GGAUCUUCUGGAUCUAACAAAAAAGACAAAUCUGCCACAAAGCUUGAGAGCAUCUUCGGAUGCAGAGGCGGCAGCCUUCGGUGGCGCGAUAGCGCCAACGUUCUCAACUAUGACAAGCAAAACGCGUGCUCCGUUGAAUGGAGUUUAUCAUG, the “polymerase ribozyme fitness (log ratio)” value rises from ≤ -4.2 to -2.96.

GGAUCUUCUGGAUCUAACAAAAAAGACAAAUCUGCCACAAAGCUUGAGAGCAAAUUCGGAUGCAGAGGCGGCAGCCUUCCGUGACGCGAUAGCGCGAACGUUCCCAAUUAUGACACGCAAAACGCGUGCUCCGUUGAAUGGAGUGUAUCAUG and GGAUCUUCUGGAUCUAACAAAAAAGACAAAUCUGCCACAAAGCUUGAGAGCAUCUUCGGAUGGAGAGGCGGCAGCCUUUGGUGGGGCGAUAGCGCCAAAGUUCUCAGCUAUGACACGCAAUACGCGUGCUCCGUUGAAUGGAAUUUAUCAUG cannot be ordered by “polymerase ribozyme fitness (log ratio)” value: ≤ -4.2 for the first, ≤ -4.2 for the second.

With GGAUCUUCUGGAUCUAACAAAAAAGACAAAUCUGCCACAAAGCUUGAGAGCAUCAUCGGAUGCAGAGGCGGCAGCCUUCGGUGGCGCGAUAGCGCCAACGUUCUCAACUAUGACACGCAAAACGCGUGCUCCGUUGAAUGGAGUUUAACCUG the “polymerase ribozyme fitness (log ratio)” value was ≤ -4.2.
